The text below walks through data of US20230220042A1 (SHANGHAI JIAO TONG UNIVERSITY SCHOOL OF MEDICINE, published 2023).

Assay [1] addresses T1, FcγRIIIA^158V (human, UniProt P08637 17-208, biotin-labeled).
T1 construct: extracellular domain; Bought protein; also called RIIIAV; CD16a 158V
Briefly: ELISA, coated antibody, biotin-FcγR.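 As to Absorbance value: antibody coated at 2 µg/mL at 100 µL per well.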 Background: ELISA stands for enzyme-linked immunosorbent assay.

Assay [2] has as its target T2, FcγRI (human, UniProt P12314 16-292, biotin-labeled).
T2 construct: extracellular domain; Bought protein; also called CD64
Put plainly: ELISA, coated antibody, biotin-FcγR.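 As to Absorbance value: antibody coated at 2 µg/mL at 100 µL per well.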

Assay [3] addresses T3, FcγRIIA^131H (human, UniProt P12318 34-217, biotin-labeled).
T3 construct: extracellular domain; Bought protein; also called RIIAH
T3 sequence (looked up): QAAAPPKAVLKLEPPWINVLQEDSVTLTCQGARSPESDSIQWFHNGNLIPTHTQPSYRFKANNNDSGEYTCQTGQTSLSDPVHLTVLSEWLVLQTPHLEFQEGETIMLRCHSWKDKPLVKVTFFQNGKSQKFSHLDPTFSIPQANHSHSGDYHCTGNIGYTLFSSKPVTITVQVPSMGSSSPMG
Briefly: ELISA, coated antibody, biotin-FcγR.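 As to Absorbance value: antibody coated at 2 µg/mL at 100 µL per well.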

The target of assay [4] is T4, FcγRIIIA^158F (human, UniProt P08637 17-208, biotin-labeled).
T4 construct: extracellular domain; Bought protein; also called RIIIAF
T4 sequence (P08637 17-208): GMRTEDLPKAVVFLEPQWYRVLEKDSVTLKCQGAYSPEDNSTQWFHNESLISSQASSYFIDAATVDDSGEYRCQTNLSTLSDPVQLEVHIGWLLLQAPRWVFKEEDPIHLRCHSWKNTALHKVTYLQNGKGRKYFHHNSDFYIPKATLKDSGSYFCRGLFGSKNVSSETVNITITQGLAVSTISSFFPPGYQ
Put plainly: ELISA, coated antibody, biotin-FcγR.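 As to Absorbance value: antibody coated at 2 µg/mL at 100 µL per well.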

The target in assay [5] is T5, FcγRIIA^131R (human, UniProt P12318 34-217, biotin-labeled).
T5 construct: extracellular domain; Bought protein; also called RIIAR
T5 sequence (looked up): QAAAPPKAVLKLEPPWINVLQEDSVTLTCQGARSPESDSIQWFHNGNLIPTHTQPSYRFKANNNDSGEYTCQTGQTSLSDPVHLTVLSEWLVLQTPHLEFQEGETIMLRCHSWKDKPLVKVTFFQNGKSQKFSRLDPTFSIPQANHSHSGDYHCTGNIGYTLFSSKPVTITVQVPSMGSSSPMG
Briefly: ELISA, coated antibody, biotin-FcγR.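 As to Absorbance value: antibody coated at 2 µg/mL at 100 µL per well.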

Assay [6] deals with T6, FcγRIIB (human, UniProt P31994 43-217, biotin-labeled).
T6 construct: extracellular domain; Bought protein; also called CD32b
T6 sequence (looked up): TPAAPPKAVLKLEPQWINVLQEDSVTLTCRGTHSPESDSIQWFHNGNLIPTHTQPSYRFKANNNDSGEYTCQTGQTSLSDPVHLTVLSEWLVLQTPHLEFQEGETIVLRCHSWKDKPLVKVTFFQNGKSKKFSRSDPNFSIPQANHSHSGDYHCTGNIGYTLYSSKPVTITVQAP
Put plainly: ELISA, coated antibody, biotin-FcγR.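 As to Absorbance value: antibody coated at 2 µg/mL at 100 µL per well.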

In assay [7] the target is T6, FcγRIIB. Briefly: ELISA; relative affinity to FcγRIIB over that to FcγRIIA131R.

T2 sequence (P12314 16-292): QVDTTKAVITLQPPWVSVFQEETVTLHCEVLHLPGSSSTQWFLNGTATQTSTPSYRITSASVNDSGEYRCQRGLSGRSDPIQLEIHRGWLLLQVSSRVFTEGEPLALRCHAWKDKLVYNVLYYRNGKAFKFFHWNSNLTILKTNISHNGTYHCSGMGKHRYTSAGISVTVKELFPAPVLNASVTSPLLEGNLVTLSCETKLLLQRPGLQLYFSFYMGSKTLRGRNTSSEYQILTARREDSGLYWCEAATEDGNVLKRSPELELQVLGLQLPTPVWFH
T1 sequence (P08637 17-208 F176V): as the sequence (P08637 17-208) above, with F160V counted along it

B1: anti-human OX40 IgG2 antibody Mut_14 (V234M/S267E/S298G/I332L) (antibody)
heavy: QVQLQESGPGLVKPSGTLSLTCAVSGGSISSSIWWSWVRQPPGKGLEWIGEIHHSGNTNCNPSLKSRVTISIDKSKNQFSLKLTSVTAADTAVYYCARAGTGTTLDYWGQGTLVTVSSASTKGPSVFPLAPCSRSTSESTAALGCLVKDYFPEPVTVSWNSGALTSGVHTFPAVLQSSGLYSLSSVVTVPSSNFGTQTYTCNVDHKPSNTKVDKTVERKCCVECPPCPAPPMAGPSVFLFPPKPKDTLMISRTPEVTCVVVDVEHEDPEVQFNWYVDGVEVHNAKTKPREEQFNGTFRVVSVLTVVHQDWLNGKEYKCKVSNKGLPAPLEKTISKTKGQPREPQVYTLPPSREEMTKNQVSLTCLVKGFYPSDIAVEWESNGQPENNYKTTPPMLDSDGSFFLYSKLTVDKSRWQQGNVFSCSVMHEALHNHYTQKSLSLSPGK
light: EIVLTQSPGTLSLSPGERATLSCRASQSVSGDYLAWYQQKLGQAPRLLIYGASIRATGIPDRFSGSGSGTDFTLTISKLEPEDFAVYYCQQYGSSPLTFGGGTKVEIKRTVAAPSVFIFPPSDEQLKSGTASVVCLLNNFYPREAKVQWKVDNALQSGNSQESVTEQDSKDSTYSLSSTLTLSKADYEKHKVYACEVTHQGLSSPVTKSFNRGEC
notes: Substitutions in Eu numbering; entries include an unstated signal peptide
B1: in assay [1], the Absorbance value was determined as 0.05 A650 and the “Relative binding affinity RIIIAV/G1” value stood at 0.06 ratio. In assay [2], the Absorbance value came to 0.12 A650 and the “Relative binding affinity RI/G1” value is 0.04 ratio. In assay [3], the Absorbance value came to 0.12 A650 and the “Relative binding affinity RIIAH/G1” value came to 0.21 ratio. In assay [4], the Absorbance value was determined as 0.06 A650 and the “Relative binding affinity RIIIAF/G1” value came out at 0.31 ratio. In addition, in assay [5], the Absorbance value is 0.32 A650 and the “Relative binding affinity RIIAR/G1” value was 1.22 ratio. Besides, in assay [6], the Absorbance value is 0.7 A650, the “Increased factor of RIIB binding compared with wild-type IgG2” value (from here on “Increased factor of RIIB binding”) amounted to 9.36 fold and the “Relative binding affinity RIIB/G1” value turned out to be 0.93 ratio. The RIIB/RIIAR in assay [7] was found to be 0.76 ratio.

B2: anti-human OX40 IgG2 antibody Mut_15 (V234Q/A235G/P238L/S239V/G327A/L328E/A330S/I332T) (antibody)
heavy: QVQLQESGPGLVKPSGTLSLTCAVSGGSISSSIWWSWVRQPPGKGLEWIGEIHHSGNTNCNPSLKSRVTISIDKSKNQFSLKLTSVTAADTAVYYCARAGTGTTLDYWGQGTLVTVSSASTKGPSVFPLAPCSRSTSESTAALGCLVKDYFPEPVTVSWNSGALTSGVHTFPAVLQSSGLYSLSSVVTVPSSNFGTQTYTCNVDHKPSNTKVDKTVERKCCVECPPCPAPPQGGLVVFLFPPKPKDTLMISRTPEVTCVVVDVSHEDPEVQFNWYVDGVEVHNAKTKPREEQFNSTFRVVSVLTVVHQDWLNGKEYKCKVSNKAEPSPTEKTISKTKGQPREPQVYTLPPSREEMTKNQVSLTCLVKGFYPSDIAVEWESNGQPENNYKTTPPMLDSDGSFFLYSKLTVDKSRWQQGNVFSCSVMHEALHNHYTQKSLSLSPGK
light: EIVLTQSPGTLSLSPGERATLSCRASQSVSGDYLAWYQQKLGQAPRLLIYGASIRATGIPDRFSGSGSGTDFTLTISKLEPEDFAVYYCQQYGSSPLTFGGGTKVEIKRTVAAPSVFIFPPSDEQLKSGTASVVCLLNNFYPREAKVQWKVDNALQSGNSQESVTEQDSKDSTYSLSSTLTLSKADYEKHKVYACEVTHQGLSSPVTKSFNRGEC
notes: as for B1
For B2, in assay [1], the Absorbance value came to 0.05 A650 and the “Relative binding affinity RIIIAV/G1” value stood at 0.06 ratio. Also, in assay [2], the Absorbance value is 0.08 A650 and the “Relative binding affinity RI/G1” value was 0.03 ratio. Besides, in assay [3], the Absorbance value is 0.04 A650 and the “Relative binding affinity RIIAH/G1” value stood at 0.07 ratio. Also, in assay [4], the Absorbance value turned out to be 0.06 A650 and the “Relative binding affinity RIIIAF/G1” value stood at 0.31 ratio. For the same molecule, in assay [5], the Absorbance value was determined as 0.04 A650 and the “Relative binding affinity RIIAR/G1” value worked out at 0.17 ratio. In assay [6], the Absorbance value was found to be 0.47 A650, the “Increased factor of RIIB binding” value turned out to be 6.21 fold and the “Relative binding affinity RIIB/G1” value was 0.62 ratio. The RIIB/RIIAR in assay [7] amounted to 3.67 ratio.

B3: anti-human OX40 IgG2 antibody Mut_17 (V266L/S267E/H268S/E269V) (antibody, name in EU numbering)
heavy: QVQLQESGPGLVKPSGTLSLTCAVSGGSISSSIWWSWVRQPPGKGLEWIGEIHHSGNTNCNPSLKSRVTISIDKSKNQFSLKLTSVTAADTAVYYCARAGTGTTLDYWGQGTLVTVSSASTKGPSVFPLAPCSRSTSESTAALGCLVKDYFPEPVTVSWNSGALTSGVHTFPAVLQSSGLYSLSSVVTVPSSNFGTQTYTCNVDHKPSNTKVDKTVERKCCVECPPCPAPPVAGPSVFLFPPKPKDTLMISRTPEVTCVVVDLESVDPEVQFNWYVDGVEVHNAKTKPREEQFNSTFRVVSVLTVVHQDWLNGKEYKCKVSNKGLPAPIEKTISKTKGQPREPQVYTLPPSREEMTKNQVSLTCLVKGFYPSDIAVEWESNGQPENNYKTTPPMLDSDGSFFLYSKLTVDKSRWQQGNVFSCSVMHEALHNHYTQKSLSLSPGK
light: EIVLTQSPGTLSLSPGERATLSCRASQSVSGDYLAWYQQKLGQAPRLLIYGASIRATGIPDRFSGSGSGTDFTLTISKLEPEDFAVYYCQQYGSSPLTFGGGTKVEIKRTVAAPSVFIFPPSDEQLKSGTASVVCLLNNFYPREAKVQWKVDNALQSGNSQESVTEQDSKDSTYSLSSTLTLSKADYEKHKVYACEVTHQGLSSPVTKSFNRGEC
notes: as for B1
For B3, in assay [1], the Absorbance value was determined as 0.06 A650 and the “Relative binding affinity RIIIAV/G1” value was found to be 0.06 ratio. In assay [2], the Absorbance value amounted to 0.14 A650 and the “Relative binding affinity RI/G1” value is 0.05 ratio. Also, in assay [3], the Absorbance value turned out to be 0.54 A650 and the “Relative binding affinity RIIAH/G1” value turned out to be 0.95 ratio. Moreover, in assay [4], the Absorbance value came to 0.09 A650 and the “Relative binding affinity RIIIAF/G1” value turned out to be 0.49 ratio. Further, in assay [5], the Absorbance value worked out at 0.5 A650 and the “Relative binding affinity RIIAR/G1” value stood at 1.9 ratio. In addition, in assay [6], the Absorbance value was found to be 1.19 A650, the “Increased factor of RIIB binding” value came to 15.9 fold and the “Relative binding affinity RIIB/G1” value turned out to be 1.58 ratio. Further, in assay [7], the RIIB/RIIAR was 0.83 ratio.

B4: anti-human OX40 IgG2 antibody Mut_16 (S267E/S298G) (antibody, name in EU numbering)
heavy: QVQLQESGPGLVKPSGTLSLTCAVSGGSISSSIWWSWVRQPPGKGLEWIGEIHHSGNTNCNPSLKSRVTISIDKSKNQFSLKLTSVTAADTAVYYCARAGTGTTLDYWGQGTLVTVSSASTKGPSVFPLAPCSRSTSESTAALGCLVKDYFPEPVTVSWNSGALTSGVHTFPAVLQSSGLYSLSSVVTVPSSNFGTQTYTCNVDHKPSNTKVDKTVERKCCVECPPCPAPPVAGPSVFLFPPKPKDTLMISRTPEVTCVVVDVEHEDPEVQFNWYVDGVEVHNAKTKPREEQFNGTFRVVSVLTVVHQDWLNGKEYKCKVSNKGLPAPIEKTISKTKGQPREPQVYTLPPSREEMTKNQVSLTCLVKGFYPSDIAVEWESNGQPENNYKTTPPMLDSDGSFFLYSKLTVDKSRWQQGNVFSCSVMHEALHNHYTQKSLSLSPGK
light: EIVLTQSPGTLSLSPGERATLSCRASQSVSGDYLAWYQQKLGQAPRLLIYGASIRATGIPDRFSGSGSGTDFTLTISKLEPEDFAVYYCQQYGSSPLTFGGGTKVEIKRTVAAPSVFIFPPSDEQLKSGTASVVCLLNNFYPREAKVQWKVDNALQSGNSQESVTEQDSKDSTYSLSSTLTLSKADYEKHKVYACEVTHQGLSSPVTKSFNRGEC
notes: as for B1
With B4, in assay [1], the Absorbance value turned out to be 0.06 A650 and the “Relative binding affinity RIIIAV/G1” value came to 0.06 ratio. In assay [2], the Absorbance value was 0.1 A650 and the “Relative binding affinity RI/G1” value was found to be 0.04 ratio. For the same molecule, in assay [3], the Absorbance value was 0.39 A650 and the “Relative binding affinity RIIAH/G1” value stood at 0.68 ratio. Besides, in assay [4], the Absorbance value came out at 0.06 A650 and the “Relative binding affinity RIIIAF/G1” value stood at 0.32 ratio. Besides, in assay [5], the Absorbance value was 0.5 A650 and the “Relative binding affinity RIIAR/G1” value amounted to 1.92 ratio. In addition, in assay [6], the Absorbance value stood at 1.09 A650, the “Increased factor of RIIB binding” value was determined as 14.5 fold and the “Relative binding affinity RIIB/G1” value is 1.44 ratio. Besides, the RIIB/RIIAR in assay [7] came to 0.75 ratio.
